Measurements: the supplement of paper PMC9112550, “Optimization of the antimicrobial peptide Bac7 by deep mutational scanning” (BMC Biology, 2022)

These sequences were tested on Escherichia coli TOP10 (assay: shrunken log2 fold change of peptide-encoding DNA abundance (4.5 h post-induction vs induction); higher = less antimicrobial activity (less host growth inhibition)). Settings: time post-induction: 4.5 h; library: site-saturation at positions 5, 18, 19, 20.
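Further: peptides expressed intracellularly from a pBAD plasmid library in pooled LB shake-flask culture, induced with 0.3% L-arabinose, DNA abundance read by NGS, three biological replicates, DESeq2 with apeglm shrinkage.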

Sequence | shrunken log2 fold change
RRIRTRPPRLPRPRPRPQTSPRP | 0.413
RRIRMRPPRLPRPRPRPMHDPRP | 0.192
RRIRERPPRLPRPRPRPFREPRP | -0.235
RRIRYRPPRLPRPRPRPCYDPRP | -0.379
RRIRLRPPRLPRPRPRPDEGPRP | -0.018
RRIRVRPPRLPRPRPRPENAPRP | 0.173
RRIRTRPPRLPRPRPRPEFNPRP | 0.085
RRIRNRPPRLPRPRPRPFMVPRP | -0.646
RRIRWRPPRLPRPRPRPMRNPRP | 0.315
RRIRCRPPRLPRPRPRPHTGPRP | -0.341
RRIRDRPPRLPRPRPRPIYRPRP | -0.175
RRIRVRPPRLPRPRPRPLATPRP | 0.309
RRIRFRPPRLPRPRPRPTQHPRP | 0.168
RRIRERPPRLPRPRPRPWHLPRP | -0.349
RRIRWRPPRLPRPRPRPQWTPRP | 0.787
RRIRTRPPRLPRPRPRPIVFPRP | -0.218
RRIRGRPPRLPRPRPRPLNMPRP | -0.114
RRIRVRPPRLPRPRPRPKAFPRP | 0.00341
RRIRMRPPRLPRPRPRPANQPRP | 0.191
RRIRVRPPRLPRPRPRPPKRPRP | -0.193

Sequence | shrunken log2 fold change
RRIRIRPPRLPRPRPRPNTFPRP | -0.926
RRIRARPPRLPRPRPRPATGPRP | 0.318
RRIRRRPPRLPRPRPRPYNKPRP | -0.664
RRIRVRPPRLPRPRPRPDAFPRP | 0.203
RRIRPRPPRLPRPRPRPFKHPRP | 0.0339
RRIRMRPPRLPRPRPRPYNLPRP | 0.227
RRIRARPPRLPRPRPRPPVAPRP | 0.77
RRIRDRPPRLPRPRPRPFQNPRP | 0.0838
RRIRVRPPRLPRPRPRPTTVPRP | -0.241
RRIRFRPPRLPRPRPRPSARPRP | 0.0874
RRIRARPPRLPRPRPRPLAEPRP | 0.976
RRIRWRPPRLPRPRPRPDLPPRP | 0.0222
RRIRTRPPRLPRPRPRPRGDPRP | 0.409
RRIRLRPPRLPRPRPRPISFPRP | -0.158
RRIRIRPPRLPRPRPRPDMGPRP | -0.0742
RRIRRRPPRLPRPRPRPWDCPRP | -0.033
RRIRKRPPRLPRPRPRPEDNPRP | 0.749
RRIRIRPPRLPRPRPRPRLGPRP | 0.0473
RRIRWRPPRLPRPRPRPECFPRP | 0.671
RRIRHRPPRLPRPRPRPCCQPRP | -0.243

Sequence | shrunken log2 fold change
RRIRGRPPRLPRPRPRPGIMPRP | 0.374
RRIRWRPPRLPRPRPRPICLPRP | 0.0313
RRIRIRPPRLPRPRPRPNADPRP | -0.322
RRIRTRPPRLPRPRPRPCGAPRP | 0.0999
RRIRHRPPRLPRPRPRPTTQPRP | -0.0335
RRIRDRPPRLPRPRPRPAEGPRP | 0.015
RRIRCRPPRLPRPRPRPNEPPRP | 0.0197
RRIRMRPPRLPRPRPRPGDIPRP | 0.025
RRIRDRPPRLPRPRPRPKRCPRP | 0.0311
RRIRMRPPRLPRPRPRPWAGPRP | 0.235
RRIRERPPRLPRPRPRPRFVPRP | -0.373
RRIRSRPPRLPRPRPRPCYKPRP | -0.281
RRIRFRPPRLPRPRPRPMSVPRP | -0.482
RRIRTRPPRLPRPRPRPSRSPRP | -0.0434
RRIRKRPPRLPRPRPRPLSRPRP | 0.254
RRIRRRPPRLPRPRPRPDYTPRP | -0.0883
RRIRTRPPRLPRPRPRPQPCPRP | -0.0212
RRIRGRPPRLPRPRPRPGQTPRP | 0.405
RRIRHRPPRLPRPRPRPAKEPRP | 0.0203
RRIRWRPPRLPRPRPRPGWNPRP | 0.238
